Five molecules from PMC6078440, “Structural and functional analysis of Dickkopf 4 (Dkk4): New insights into Dkk evolution and regulation of Wnt signaling by Dkk and Kremen proteins” (The Journal of Biological Chemistry, 2018) can be followed below.

Sequences and labels used below:
B2: full-length mature Dkk4 (Dickkopf 4), residues 19-224, His-tagged (natural protein, human, UniProt Q9UBT3 19-224, looked up)
chain: LVLDFNNIRSSADLHGARKGSQCLSDTDCNTRKFCLQPRDEKPFCATCRGLRRRCQRDAMCCPGTLCVNDVCTTMEDATPILERQLDEQDGTHAEGTTGHPVQENQPKRKPSIKKSQGRKGQEGESCLRTFDCGPGLCCARHFWTKICKPVLLEGQVCSRRGHKDTAQAPEIFQRCDCGPGLLCRSQLTSNRQHARLRVCQKIEKL
modifications: uniformly 15N/13C/2H-labelled in the NMR experiments
notes: residues numbered from the N-terminal methionine; also called Dkk4FL

“And” between values parts separate entries of the source, which are not always exact repeats. Identical values can stand only once.

Data set [1] addresses T1, Kremen1 extracellular domain Fc fusion protein (human, UniProt Q96MU8 21-392).
T1 construct: Kremen1 (Krm1), human, extracellular domain (kringle, WSC and CUB domains); also called Krm1 ECD-Fc; Krm1 ECD; source: expressed, in cell culture medium (supernatants); host in the supporting material
T1 sequence (looked up): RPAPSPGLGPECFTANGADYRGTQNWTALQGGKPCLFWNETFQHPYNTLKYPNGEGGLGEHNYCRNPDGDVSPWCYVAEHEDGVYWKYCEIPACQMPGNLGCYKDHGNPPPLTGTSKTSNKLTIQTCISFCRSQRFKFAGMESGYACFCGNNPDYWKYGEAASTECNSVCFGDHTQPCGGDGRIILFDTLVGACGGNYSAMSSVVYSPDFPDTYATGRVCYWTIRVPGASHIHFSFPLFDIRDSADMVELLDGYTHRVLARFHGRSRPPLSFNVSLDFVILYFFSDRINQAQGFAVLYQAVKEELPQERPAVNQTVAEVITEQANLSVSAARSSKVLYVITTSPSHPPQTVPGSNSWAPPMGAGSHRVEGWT
Description: BLI; Krm1 ECD-Fc loaded from supernatants on AHC biosensors; Dkk2FL or Dkk4FL 1-1000 nM, Dkk4N 0.1-100 μM; 25 mM Na2HPO4, 100 mM NaCl, 0.05% Triton X-100, pH 6.5; steady-state fit to a one-site model. Conditions: one partner purified. On the technique in general: Biolayer interferometry detects binding as a change in optical thickness at a sensor tip.

The target of data set [2] is T2, LRP6 E1E2-Fc (β-propeller domains 1 and 2 of low-density lipoprotein receptor-related protein 6, Fc fusion) (human).
T2 chain: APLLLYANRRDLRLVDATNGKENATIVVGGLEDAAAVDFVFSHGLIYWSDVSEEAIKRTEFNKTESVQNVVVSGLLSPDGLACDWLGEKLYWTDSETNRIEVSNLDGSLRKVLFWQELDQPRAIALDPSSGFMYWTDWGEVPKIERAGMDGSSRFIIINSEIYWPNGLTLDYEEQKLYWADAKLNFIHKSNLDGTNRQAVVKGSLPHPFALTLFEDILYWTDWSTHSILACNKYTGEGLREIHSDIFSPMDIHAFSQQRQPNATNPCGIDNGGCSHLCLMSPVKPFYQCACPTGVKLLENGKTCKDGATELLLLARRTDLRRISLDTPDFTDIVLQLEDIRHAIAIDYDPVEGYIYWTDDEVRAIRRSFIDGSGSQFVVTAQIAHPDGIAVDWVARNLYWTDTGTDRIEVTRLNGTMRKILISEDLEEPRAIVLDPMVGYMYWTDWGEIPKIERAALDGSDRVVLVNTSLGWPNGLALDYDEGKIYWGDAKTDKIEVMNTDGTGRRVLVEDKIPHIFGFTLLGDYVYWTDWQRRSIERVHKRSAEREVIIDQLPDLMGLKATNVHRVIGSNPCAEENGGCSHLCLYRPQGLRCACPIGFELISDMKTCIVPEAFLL
Description: BLI; pH 7.5.

The target in data set [3] is T3, Kremen1 extracellular domain Fc fusion protein (human, UniProt Q96MU8 21-392).
T3 chain: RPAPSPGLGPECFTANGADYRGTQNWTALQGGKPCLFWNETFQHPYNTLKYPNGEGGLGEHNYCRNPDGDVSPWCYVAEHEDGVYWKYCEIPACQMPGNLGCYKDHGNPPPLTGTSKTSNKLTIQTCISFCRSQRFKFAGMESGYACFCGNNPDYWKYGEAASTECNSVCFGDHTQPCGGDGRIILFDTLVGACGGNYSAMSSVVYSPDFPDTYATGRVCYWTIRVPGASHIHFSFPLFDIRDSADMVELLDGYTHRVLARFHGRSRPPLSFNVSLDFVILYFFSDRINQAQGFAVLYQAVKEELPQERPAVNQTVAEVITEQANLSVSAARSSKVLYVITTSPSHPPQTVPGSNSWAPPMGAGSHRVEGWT
Description: BLI; pH 6.5.

Data set [4] has as its target T2, LRP6 E1E2-Fc (β-propeller domains 1 and …). The data set is described as follows: BLI; pH 6.5.
Data set [5] deals with the molecule itself. Description: SEC; Superdex 75 10/300 GL, 3 μM Krm1 ECD in 50 mM Na2HPO4, 100 mM NaCl, pH 7.5; apparent masses from a calibration with globular standards; monomer and dimer. A general note: SEC sorts molecules by how far they enter the pores of the column.
Data set [6] deals with B2. The data set is described as follows: BLI; LRP6 E1E2-Fc (200 nM) loaded on AHC biosensors; Dkk4FL 1-1000 nM; 25 mM Na2HPO4, 100 mM NaCl, 0.05% Triton X-100, pH 6.5; steady-state fit to a one-site model. The settings on record: both partners purified.
The target in data set [7] is T4, N-terminal region of Dkk4 including CRD1, residues 19-97 (human, UniProt Q9UBT3 19-97).
T4 construct: Dickkopf 4 (Dkk4), human, N-terminal region with the NXI(R/K) motif and CRD1, residues 19-97; residues numbered from the N-terminal methionine; construct details are in the supporting material; also called Dkk4N; isolated Dkk4N region; not shown: His6 (with linker), C-terminal, kept
T4 sequence (looked up): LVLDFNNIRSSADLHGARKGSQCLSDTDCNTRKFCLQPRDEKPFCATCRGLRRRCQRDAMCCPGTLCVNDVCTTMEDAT
The data set is described as follows: BLI; LRP6 E1E2-Fc (200 nM) loaded on AHC biosensors; Dkk4N 0.1-100 μM; 25 mM Na2HPO4, 100 mM NaCl, 0.05% Triton X-100, pH 6.5 or 7.5 (not told which for the printed KD); later experiments with 0.1% BSA; steady-state fit to a one-site model. The settings on record: both partners purified.

B1: full-length mature Dkk2 (Dickkopf 2), residues 38-259, His-tagged (natural protein, human, UniProt Q9UBU2 38-259, looked up)
chain: IKSSLGGETPGQAANRSAGMYQGLAFGGSKKGKNLGQAYPCSSDKECEVGRYCHSPHQGSSACMVCRRKKKRCHRDGMCCPSTRCNNGICIPVTESILTPHIPALDGTRHRDRNHGHYSNHDLGWQNLGRPHTKMSHIKGHEGDPCLRSSDCIEGFCCARHFWTKICKPVLHQGEVCTKQRKKGSHGLEIFQRCDCAKGLSCKVWKDATYSSKARLHVCQKI
notes: also called Dkk2FL
Broadly, the Kd is the concentration at which binding is half-saturated. A low value points to a tighter complex. The molecule B1 returned a dissociation constant (Kd) in data set [1] of approximately 12 nM.
Take B2: the equilibrium dissociation constant (Kd) was 48.7 nM and 55.6 nM in data set [2]; 93.1 nM in data set [3]; 93 to 130 nM in data set [1].

B3: N-terminal region of Dkk4 including CRD1, residues 19-97 (domain or fragment)
chain: LVLDFNNIRSSADLHGARKGSQCLSDTDCNTRKFCLQPRDEKPFCATCRGLRRRCQRDAMCCPGTLCVNDVCTTMEDAT
Molecule B3 gave a dissociation constant (Kd) in data set [4] of 11100 nM.

B4: isolated Kremen1 extracellular domain, Fc tag removed (domain or fragment, human, UniProt Q96MU8 21-392, looked up)
chain: RPAPSPGLGPECFTANGADYRGTQNWTALQGGKPCLFWNETFQHPYNTLKYPNGEGGLGEHNYCRNPDGDVSPWCYVAEHEDGVYWKYCEIPACQMPGNLGCYKDHGNPPPLTGTSKTSNKLTIQTCISFCRSQRFKFAGMESGYACFCGNNPDYWKYGEAASTECNSVCFGDHTQPCGGDGRIILFDTLVGACGGNYSAMSSVVYSPDFPDTYATGRVCYWTIRVPGASHIHFSFPLFDIRDSADMVELLDGYTHRVLARFHGRSRPPLSFNVSLDFVILYFFSDRINQAQGFAVLYQAVKEELPQERPAVNQTVAEVITEQANLSVSAARSSKVLYVITTSPSHPPQTVPGSNSWAPPMGAGSHRVEGWT
notes: Kremen1 (Krm1), human, extracellular domain (kringle, WSC and CUB domains); Eluted in SEC as monomer (35 kDa) and noncovalent dimer (70 kDa); also called Krm1 ECD; isolated Krm1 ECD; source: prepared from Krm1 ECD-Fc by removal of the Fc tag, size-exclusion chromatography; host in the supporting material
The stoichiometry N is a count of units in the complex or per binding partner. On to B4, for which the “stoichiometry N” value in data set [5] is 2.

B5: LRP6 E1E2-Fc (β-propeller domains 1 and 2 of low-density lipoprotein receptor-related protein 6, Fc fusion) (Fc fusion)
chain: APLLLYANRRDLRLVDATNGKENATIVVGGLEDAAAVDFVFSHGLIYWSDVSEEAIKRTEFNKTESVQNVVVSGLLSPDGLACDWLGEKLYWTDSETNRIEVSNLDGSLRKVLFWQELDQPRAIALDPSSGFMYWTDWGEVPKIERAGMDGSSRFIIINSEIYWPNGLTLDYEEQKLYWADAKLNFIHKSNLDGTNRQAVVKGSLPHPFALTLFEDILYWTDWSTHSILACNKYTGEGLREIHSDIFSPMDIHAFSQQRQPNATNPCGIDNGGCSHLCLMSPVKPFYQCACPTGVKLLENGKTCKDGATELLLLARRTDLRRISLDTPDFTDIVLQLEDIRHAIAIDYDPVEGYIYWTDDEVRAIRRSFIDGSGSQFVVTAQIAHPDGIAVDWVARNLYWTDTGTDRIEVTRLNGTMRKILISEDLEEPRAIVLDPMVGYMYWTDWGEIPKIERAALDGSDRVVLVNTSLGWPNGLALDYDEGKIYWGDAKTDKIEVMNTDGTGRRVLVEDKIPHIFGFTLLGDYVYWTDWQRRSIERVHKRSAEREVIIDQLPDLMGLKATNVHRVIGSNPCAEENGGCSHLCLYRPQGLRCACPIGFELISDMKTCIVPEAFLL
Regarding B5, the Kd was 64 to 77 nM in data set [6] and 11000 to 30000 nM in data set [7].
